Article PMC11268095

What was measured:
Assay in all cases: BLI; BLItz, Ni-NTA biosensor; phospho-His-SrcKD or variant (58 μM, 5 μL) immobilised as bait for 3 min; rPTPεD1 or variant as analyte, association 120 s, dissociation 120 s; 20 mM Tris-HCl pH 7.5, 50 mM NaCl, 5 mM DTT; 100 μM ATP and 1 μM CSK added before every immobilisation; global fit
[1] = target: phospho-His-SrcKD-D518K (phosphorylated His-tagged Src kinase domain, Trp 260-Leu 533, K295M/Y416F and a change at 518) (UniProt P00523)
[2] = target: phospho-His-SrcKD-E486A (phosphorylated His-tagged Src kinase domain, Trp 260-Leu 533, K295M/Y416F/E486A) (UniProt P00523)
[3] = target: phospho-His-SrcKD (phosphorylated His-tagged Src kinase domain, Trp 260-Leu 533, K295M/Y416F) (UniProt P00523)

Row | Substance | Kd [1] [µM] | koff [1] [s⁻¹] | kon [1] [M⁻¹ s⁻¹] | Kd [2] [µM] | koff [2] [s⁻¹] | kon [2] [M⁻¹ s⁻¹] | Kd [3] [µM] | koff [3] [s⁻¹] | kon [3] [M⁻¹ s⁻¹]
1 | rPTPεD1 (D1 domain of rPTP epsilon, Ser 101-Thr 400, C335A) (domain or fragment) | 184 | 0.0661 | 360 | 80.4 | 0.0476 | 592 | 26.2 | 0.0284 | 1080
2 | rPTPεD1-R220E (D1 domain of rPTP epsilon, Ser 101-Thr 400, C335A/R220E) (domain or fragment) | – | – | – | – | – | – | 168 | 0.0341 | 202
3 | rPTPεD1-K237D (D1 domain of rPTP epsilon, Ser 101-Thr 400, C335A/K237D) (domain or fragment) | – | – | – | – | – | – | 352 | 0.0853 | 242
